Test results taken from US20170107293A1 (BIOINVENT INTERNATIONAL, published 2017).
Residue numbers refer to the chain shown, from its start. Each block holds one binder with its values, some of them ahead of it.

Target: T1, human FcγRIIA on cells (human, UniProt P12318 34-317)
T1 construct: whole, on cells; also called hFcγRIIA; FcγRIIA^+ve CHO
T1 sequence (looked up): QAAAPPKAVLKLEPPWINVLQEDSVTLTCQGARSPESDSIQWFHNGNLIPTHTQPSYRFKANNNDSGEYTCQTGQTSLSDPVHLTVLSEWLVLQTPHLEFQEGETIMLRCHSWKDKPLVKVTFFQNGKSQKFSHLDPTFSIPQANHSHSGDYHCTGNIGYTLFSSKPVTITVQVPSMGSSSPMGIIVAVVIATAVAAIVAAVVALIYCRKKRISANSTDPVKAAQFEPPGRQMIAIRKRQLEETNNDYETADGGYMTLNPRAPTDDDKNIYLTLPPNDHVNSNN
Assay: binding to FcγRIIA-transfected CHO-k1 cells

binding result: no binding
B1: 5E12 (antibody, human IgG1, V domains shown)
VH: EVQLLESGGGLVQPGGSLRLSCAASGFTFSSYGMHWVRQAPGKGLEWVAVISYDGINKDYADSMKGRFTISRDNSKNTLYLQMNSLRAEDTAVYYCARERKDAFDIWGQGTLVTVSS
VL: QSVLTQPPSASGTPGQRVTISCTGSSSNIGAGYDVHWYQQLPGTAPKLLIYSNNQRPSGVPDRFSGSKSGTSASLAISGLRSEDEADYYCATWDDSLNGLVFGGGTKLTVLG
notes: hFcγRIIB mAb, human IgG1 (WT); Only VH/VL tied to the clone; also called Antibody clone: 5E12

binding result: no binding
B2: 6C12 (antibody, human IgG1, V domains shown)
VH: B1 VH with I56S, D59Y, M64V, K101R
VL: QSVLTQPPSASGTPGQRVTISCTGSSSNIGAGYDVHWYQQLPGTAPKLLIYSDNQRPSGVPDRFSGSKSGTSASLAISGLRSEDEADYYCATWDSDTPVFGGGTKLTVLG
notes: hFcγRIIB mAb, human IgG1 (WT); Only VH/VL tied to the clone; also called Antibody clone: 6C12

binding result: no binding
B3: 6H08 (antibody, human IgG1, V domains shown)
VH: B1 VH with S30N, S31N, I56S, D59Y, M64V, R72K, R100Y
VL: QSVLTQPPSASGTPGQRVTISCTGSSSNIGSNTVNWYQQLPGTAPKLLIYDNNKRPSGVPDRFSGSKSGTSASLAISGLRSEDEADYYCQAWGTGIRVFGGGTKLTVLG
notes: hFcγRIIB mAb, human IgG1 (WT); Only VH/VL tied to the clone; also called Antibody clone: 6H08

binding result: no binding
B4: 4B02 (antibody, human IgG1, V domains shown)
VH: B1 VH with S31N, Y32H, I56T, D59Y, M64V, K65R, R100T, K101W, I106V
VL: B3 VL with T23S, T33N, V34A, G93D, T94S, G95S, I96T, R97V
notes: hFcγRIIB mAb, human IgG1 (WT); Only VH/VL tied to the clone; also called Antibody clone: 4B02

binding result: no binding
B5: 6C11 (antibody, human IgG1, V domains shown)
VH: EVQLLESGGGLVQPGGSLRLSCAASGFTFDDYGMSWVRQAPGKGLEWVSAISGSGSSTYYADSVKGRFTISRDNSKNTLYLQMNSLRAEDTAVYYCAGGDIDYFDYWGQGTLVTVSS
VL: B1 VL with I29F, S52E, Q55K, T92A, L100P
notes: hFcγRIIB mAb, human IgG1 (WT); Only VH/VL tied to the clone; also called Antibody clone: 6C11

binding result: no binding
B6: 6G03 (antibody, human IgG1, V domains shown)
VH: EVQLLESGGGLVQPGGSLRLSCAASGFTFGSYGMHWVRQAPGKGLEWVSGISWDSAIIDYAGSVKGRFTISRDNSKNTLYLQMNSLRAEDTAVYYCAKDEAAAGAFDIWGQGTLVTVSS
VL: QSVLTQPPSASGTPGQRVTISCTGSSSNIGAGYDVHWYQQLPGTAPKLLIYGNTDRPSGVPDRFSGSKSGTSASLAISGLRSEDEADYYCAAWDDSLSGPVVFGGGTKLTVLG
notes: hFcγRIIB mAb, human IgG1 (WT); Only VH/VL tied to the clone; also called Antibody clone: 6G03
